# Assay: soluble on expression in E. coli; label from the status in PepcDB or PDB records
row,Sequence,soluble on expression in E. coli
1,MGSDKIHHHHHHMIDVAIIGGGHNGLVTAAYLAKAGLKVAVFERREIVGGASVTEELWPSIKVSTGAYVLSLLRPKIIEELKLREFGLKVYLKDPGLFLPFENGKKLYIWSSLEKTKKEIEKFSKNDAKNYKKWVKFWDLFAEMADFFMLNPPPHIDEASNLINIFRGNVNEELALSFLRTFMQDAKSLLDEYFETDEVKSALAEDSVVGTFASPSTPGTAYVLAHHVIGEVNGVKGAWGYVEGGMGEVTQALKRSAEHLGVEIYTNAEVDEVLVKNGRVEGIKLKNGKTINAKIIVSNADPKTTFFKLLRNAELEEDFLRRVRALKNVGVSFKIVGYLEELPDFGNGKSLSPEHIASELIMPNMEYIEKAYDDARALGYSREPWLSINIQSSVDPTVAPPGKFSFSIFGQYLVYDSKRNDEMKEKIAEITFEKIKEFAPNFKPIKYEVLTPLDIERRFGINGGNIFHLDMTPDQLYFFRPLIGYSDYTTPIRGLYLCGSGTHPGGGVTGAPGYNAHVKILEDLRKGIYK,not soluble
2,MGSDKIHHHHHHMIEVEIDKDSGFCFGVVTAIESAERELGNTDTLYCLGDIVHNSLEVERLEHMGLHTIDHEGLSRLRDRKVLLRAHGEPPSTYALAKRNNITIIDATCPVVLRLQRKIHKCYQETRANNTQLVIYGKKGHAEVNGLVGQTEGTAIVIEKIEDLDRLDFTRAISLFSQTTKSLDGFKAVVAEIKQRMAEGVEFNYYDTICRQVANRLPNIKAFASSHDWVYFVAGRKSSNGKMLFEECRKANPNTLFISEVSEITEPLPEGVRRVGVCGATSTPKWLMEEVAVRIKELNASE,not soluble
3,MGSDKIHHHHHHMIFELPDTTTQQISKTLTRLRESGTQVTTGRVLTLIVVTDSESDVAAVTESTNEASREHPSRVIILVVGDKTAENKVDAEVRIGGDAGASEMIIMHLNGPVADKLQYVVTPLLLPDTPIVAWWPGESPKNPSQDPIGRIAQRRITDALYDRDDALEDRVENYHPGDTDMTWARLTQWRGLVASSLDHPPHSEITSVRLTGASGSTSVDLAAGWLARRLKVPVIREVTDAPTVPTDEFGTPLLAIQRLEIVRTTGSIIITIYDAHTLQVEMPESGNAPSLVAIGRRSESDCLSEELRHMDPDLGYQHALSGLSSVKLETV,not soluble
4,MGSDKIHHHHHHMIFKRKVYDKLIEWKTLAAGTSAVLLEGARRIGKSTIVEEFAKKEYDDYMILDFARENQDVKNNFVENMNDLDTFFRNLFLLKGKRLKGKNCVIIFDEVQLFPQARQAIKYLVADGRYEYIETGSLISIRKNVKDILIPSEEYRIKMYPMDFEEYLWAINDEVTIPTIRESFEKRKPLGDAIHRRIMKSFRTYMVVGGMPQAVDAYVSGKSYEQIDFVKRNILSLYEEDLAKYDTENREKASVIYRTIPEQLENKNSHFKLSMVDKNARYQNYMDAVSFISEAMIGNECINVTKPEVALELFADRSNFKLYMGDTGLLVTQIMKNRDSTDEDLYKALIIDNLGINQGMIVENIVAQMLRAAGHELYFHEYLYVPEGTTREKKYEIDFMIVKKKKICPIEVKSSNYMSHKSFDYLIQKYQLKCENRFIIYTKDLKYQDGIMYIPIYMTMLL,not soluble
5,MGSDKIHHHHHHMIGKFFASINLSDVAAMAGIPISFMTAYSISPEIEISFLEDIESGIMKVLKMYDVDFIGGDLKEGMDLILTGIAIGKQKKTLTRKRSDIGRKQMVAYTNKLGRAASGYIFYKSGYDSVEGINMMLGITPRLEEARIISEYGAKFMMDLSDGLYSSLNQMKADYGVGFKIVEDEVVYDDSARKAAEISGASVYDIACGYGGDYELLFTVPEENYRDFAQAMESNNIEVHFIGETWEGENIVFDGKTWTKMKDEGYEHFRPKPQLGEIR,not soluble
6,MGSDKIHHHHHHMIHITSLDDGLELFKALGSDIRIQILKILLENNQMSMNQIANELNISNGALTGHIKKLEECGLISASNDSSGHGNQKLCSLIQDRILVEIEKPIDLSNVYNTSIKVGQFSSHNICPTCGLATSSFVIGELDDVRYFDHPDHFNADIMWFTKGYVEYVIPNLIPRNQKITQLSLSAEISSEAPGIDNDWPSDISFYINDTLVGTWTSPGDYGDVRGMFTPEWWPQNWNQYGLLKLLVINHKGTFIDGLKISDITTSELKLDYTSTIRFRIAVEEDSAHVGGLTIFGKSFGNYDQDIVVSINYEPLDTEKNTK,not soluble
7,MGSDKIHHHHHHMIIHEITEECFKKYGKVIDSIDLTELVSTMQTVEIPADVVYEPSISALEKLKCATELQQKTYGELPIQIGWCIGNNHKLNAVEYHRCSEVNIAATDAILILGRQQDISVENTYDTSLMEAFRIPSGTAVELYATTLHYAPCNASAGGFLVAVVLPKGTNEALEHPHTGGEDALLAAKNKWLIGHPEGGLPDGSYIGLTGENLEIK,not soluble
8,MGSDKIHHHHHHMIIQRVVLNSRPGKNGNPVAENFRVEEFSLLDALNEGQVQVRTLYLSVDPYMRCKMNEDTGTDYLAPWQLAQVADGGGIGIVEESKHQKLAKGDFVTSFYWPWQTKAILDGNGLEKVDPQLVDGHLSYFLGAIGMPGLTSLIGVQEKGHISAGSNQTMVVSGAAGACGSLAGQIGHLLGCSRVVGICGTQEKCLFLTSELGFDAAVNYKTGNVAEQLREACPGGVDVYFDNVGGDISNTVISQMNENSHIILCGQISQYNKDVPYPPPLPPAVEAIRKERNITRERFTVLNYKDKFEPGILQLSQWFKEGKLKVKETVAKGLENMGVAFQSMMTGGNVGKQIVCISEDSSL,soluble
9,MGSDKIHHHHHHMIITVINGSPRKNGATSKVLTYLYKDIERLIPDVKINYFDLSEVNPSYCIGCLNCYKMGKCINQNDKVEYIHDIITKSDGVIFGSPTYGSSVTGLFKVFTDRAHMMLERLLYRKPCIAVTTYENARGSKAISFIKSMVLDSGGYVCGSLSIKTGFNQNPITEKVESKIQKVSKKFIYCIEEKKNPPVLSQIYNFIAINAVLKPMAFKDIEQYKGIIDRWEEQGII,not soluble
10,MGSDKIHHHHHHMIKIETVLDILKKDGLFREIIDQGHYHYNYSKVIFDSISYDSRKVTEDTLFFAKGAAFKKEYLLSAITQGLAWYVAEKDYEVGIPVIIVNDIKKAMSLIAMEFYGNPQEKLKLLAFTGTKGKTTAAYFAYNILSQGHRPAMLSTMNTTLDGETFFKSALTTPESIDLFDMMNQAVQNDRTHLIMEVSSQAYLVKRVYGLTFDVGVFLNISPDHIGPIEHPSFEDYFYHKRLLMEKSRAVIINSDMDHFSVLKEQVEDQDHDFYGSQFDNQIENSKAFSFSATGKLAGDYDIQLIGNFNQENAVAAGLACLRLGASLEDIKKGIAATRVPGRMEVLTQKNGAKVFIDYAHNGDSLKKLINVVETHQTGKIALVLGSTGNKGESRRKDFGLLLNQHPEIQVFLTADDPNYEDPMAIADEISSYINHPVEKIADRQEAIKAAMAITNHELDAVIIAGKGADCYQIIQGKKESYPGDTAVAENYL,not soluble
11,MGSDKIHHHHHHMIKLKTFGSFTVGNDISSVQEGAWRSEKLEKLFVYLAMNRNRGVCIEDISEAIWQVEEETDNPVGALKNLAYRLRKALRDASFDEECIVSVRGGLYKWNDDVEVTIDVEEFDRYINEAEMAFCRSKETAIESYEKAIALYHGDFLPLRTDTHWFMTLNAFYHSRYVNTVKALAKLYIDTGCYEKLEQLCIRAIVYERSDEQIYSYLIMARMRTKKVQMAFDTYETAKAIMDKDLGVRKTVMLNKVYEELLSVTKGVSSYNIDEVKEDINEESMEGVFMCGYPVFKEIYHLEVRKSARSTIPESLVLVTVVPMYSSQPDKNHSQMKDSMHTLERALRKCLRVGDVAAKYSDSQYIVLLSKCSCDTASDVMKRIIDRFNHTCDTHSNMTIHFDIEPVSCYSSFVSDK,not soluble
12,MGSDKIHHHHHHMIKRRYMRTRQLKPGMIIDQVIKDPTGRNLVVQGSAIDDYIISSLLKLGIMSVYIREGNADPDDPDAILSPKAAAMVKQLRTDDRSKVTLSDSVRQRVSTGVQYIFNNTNSEELTQATNQIADSLMEAINENDAIAVDISSLKTSDEYTFKHSVDVATISMILAKQMKLPDNEIHDIGVSGLLHDIGKTMIPNEILNKPGRLTDDEFNIMKKHSVYGYNMLKDRKDLNNSILMGVLQHHERIDGTGYPLGFDAPKICQFAKILSVADVYDALVTKRPYKDALSQRDAVEMLMSMTNQLDIGVMRAFMSSMILYPVDSIVQLSNGEKARVVKNSEYYILRPTVVGVDSGRVYNLGNDLKCASIIIL,not soluble
13,MGSDKIHHHHHHMILFEWGTYNALSTLKQAALLGTRITEIPPAVLSRRLPSGYYESYKKLGGEYFTSILAHGPYYSLSSEKGLKGHLSAIEKATLCGAEIYNYHLGKRVGDDLNYHLEVLKKFSEVNNEMIYSPEPATNIGEFGTLDELEELIKAAKEEDIKIIPSLQLENIFLNELGVYEKDDLDEAAEKADVDWWLKIFRRMDKISDYIMHFRFSQVIGLKYGKRFYKKRVPLGKGYPPVEPLTEALATYLVDNATRGGFKKVLFVYTGLPEVKYRDLIDLYAMIMKKSIDKLMSRESQVEYGDFYKVMSSEEEE,not soluble
14,MGSDKIHHHHHHMILSRGRNYVFIHIPKTGGTALALALESRAMAGDEMLGDTPKAVKRRRRLHGTETRGRLWKHSTLADIEGLASREELRQMFAFTLVRNPFDRVVSLYHWLKEQSFDHPMVPLAHSLPFTSFVTDPLVMRALKSQPALSYMMQSDGYEHCSLYIRLEYFAKDAAPLFDHLGFALELPRVNESRRDPDWRVYYDSQAVDAVRTCCQLEIERFEYSFNDYPLSL,not soluble
15,MGSDKIHHHHHHMINHHPNSDVLAQFVAGTLPASVSVLVASHVELCSECTRAVQALTEQAAIDAFGESSQEALRDASQPAGLADVSGLDDFDGLDDFDTSDQFGDSDEFADCINAITALERDDTQQLPQTVTEIAVGGERIPLPTALRSIPLKEWQGMGKLSRSRLALDDGDLRMSLLHIDKGGSVPCHTHKGFEITLLLQGSFTDEMGEYRKGDFIWLDGQHTHQPVTEKGCVCLTVSSDAIRFTQGVSQLLNPIGRFIY,not soluble
16,MGSDKIHHHHHHMINKHVISEKIKKAIVEANIKINPEVEEIIERYEGPFSDIIKENYRVSKEEKLPLCQDTGIVEFFVFIGHEVKLEEPIEETLNRAVGEVYSEYPFRYSVVSDPLFERINTGTNTPAIVHIFQVKGKSLEIRFLVKGGGSENLTVLRMMTPTSDVEKVKEFVIEHIKEHGAKACPPLHVGIGIGGTADKALLLSKLALTKSFKERNKDPKYAGLEKELEKELNFLGIGFQGLGKGITVYSVHIEHFPTHIATLPVAVSVDCYLCRRGKVTFED,not soluble
17,MGSDKIHHHHHHMINLSKKLIRQVAQANAKFGLIKDGDRVLLGLSGGKDSLALAHLLNRMQAHAPFKFELEAVTLSYGMGEDYSHLHAHCEEHGIKHSVLDSNIYEVSGDTIRENSSFCSYFSRMRRGALYTYALEKGFNKLAIAHHLDDAAESFFMNFIHNGALRTLAPIYQSKRGITVIRPLIFVRERQLRDNATQNELSVIGNEFCPGMKLSEKNVKFPHAREEAKQLLANLEKDHPKLFTSLKTAFANLHTESFWLQKA,not soluble
18,MGSDKIHHHHHHMINQVYQLVSPRQFEATFKTIDLHNHNSKVIVRPLYLSICAADLRYYCGNRDSKILSKKLPMSLIHESVGEIVYDSEHRLKNGTKVVMIPNTPSKSHNIIAENYLTSSHFKSSGYDGFMQDYIVMKPDRVVTLPQEIDLSVASYTELVTVSVHAIDRFQSKAIPQFESLGIWGDGNLGYITAVLLKKLYPTTKIIVFGKTLYKLSRFSFVDEIIQIDNIPQHIKIDHAFECVGGKGSQQAIEQIINIINPEGSIALLGVSELPIQVNTRMVLEKGLTIIGSSRSGLKDFEKTIELYRKYPEVLNQLALLKGKEFEINTIEDLITAFEYDISNAWGKTVLKWNI,not soluble
19,MGSDKIHHHHHHMIPIKVSMRNLSSLTIAGGSTISSIDIPLNPLGVPPSTIKGTMRTAVHNLLPNGYTSCGEVEPESIREAHKNGVCDVCKLFGYPDSLTGCFTIDVSKTDYRTSYITRVSIDDKTQRAKEGSLFTQQIILPNSDISFTVYYNCNDERLFKLLLYSILDLRYWRLGRNTMIDVKVNNVEEICKSVKCDEEINGILNQLSRYLWEAENK,not soluble

# From the DeepSol protein solubility set
